Data from patent US20120231005A1 (Merck Sharp & Dohme, published 2012).

Experiments:
human PCSK9 [1] = target: T1, human PCSK9 (human, UniProt Q8NBP7 31-692, limits assumed); test: TR-FRET; antibody titrated against 10 nM AF647-PCSK9 and about 4 nM Eu-LDLR ectodomain
T1 construct: It carried an AlexaFluor647 label in the TR-FRET assay only; also called hPCSK9; wild type human PCSK9
Procedure: After at least 90 minutes of equilibration, samples were read in a Rubystar reader (BMG Corp.) using 20 flashes per well, a 50 μsec integration delay, and a 200 μsec total integration time.

human PCSK9 [2] = target: T1, human PCSK9; test: SPR (Biacore); IgG captured on anti-human IgG, PCSK9 injected
Procedure: (§1) The affinities of those IgG molecules were also measured by Biacore assay. Briefly, anti-human IgG monoclonal antibody form Human Antibody Capture Kit provided by Biacore was immobilized on CM5 chips at a level of 8000 to 10000 RU. […] After each round injection, the sensor chip surface was regenerated by 30 second injection of 3M Magnesium Chloride.

rhesus PCSK9 (rhesus) [3] = test: affinity table, IgG2 (Biacore)
rhesus PCSK9 (rhesus) [4] = test: SPR (Biacore); IgG captured on anti-human IgG, PCSK9 injected
rhesus PCSK9 (rhesus) [5] = test: cell-based or functional assay
human FcRn = target: T2, human FcRn (human, UniProt P55899 24-297; P61769 21-119, limits assumed); test: Biacore; human FcRn immobilised, 100 nM mAb bound at pH 6.0, read 5 s into dissociation at pH 7.3
T2 construct: Beta-2-microglobulin is not mentioned for the purified protein; also called human FeRn
Procedure: The neutral pH dissociation of mAbs from human FeRn was measured by SPR using a Biacore T-100 instrument. Briefly, purified FeRn protein was immobilized onto a Biacore CM5 biosensor chip and PBSP (50 mM NaPO4, 150 mM NaCl and 0.05% (v/v) Surfactant 20) pH 7.3 was used as running buffer. The mAbs were diluted with PBSP pH 6.0 to 100 nM, allowed to bind FcRn for 3 minutes to reach equilibrium and followed by 1 minute of dissociation in pH 7.3 running buffer. A report point (Stability) was inserted at 5 seconds after the end of mAb binding and the “% bound” was calculated as RUStability/RUBinding (%).

human PCSK9 [6] = target: T1, human PCSK9; test: affinity table, IgG2 (Biacore)
Procedure: as §1

mouse PCSK9 = target: T3, mouse PCSK9 (mouse, UniProt Q80W65 35-694, limits assumed); test: affinity table, IgG2 (Biacore)
T3 construct: also called Mouse PCSK9 9
Procedure: as §1

rat PCSK9 = target: T4, rat PCSK9 (rat, UniProt P59996 31-691, limits assumed); test: affinity table, IgG2 (Biacore)
T4 construct: also called rPCSK9
Procedure: as §1

human PCSK9 [7] = target: T1, human PCSK9; test: cell-based or functional assay
human PCSK9 [8] = target: T1, human PCSK9; test: affinity table, IgG2 (Biacore); remark: listed apart in the source
Procedure: as §1

rhesus PCSK9 = rhesus PCSK9 (rhesus, UniProt A8T644 31-692 (Pan troglodytes entry), limits assumed); test: cell-based or functional assay

T3 sequence (Q80W65 35-694 limits assumed): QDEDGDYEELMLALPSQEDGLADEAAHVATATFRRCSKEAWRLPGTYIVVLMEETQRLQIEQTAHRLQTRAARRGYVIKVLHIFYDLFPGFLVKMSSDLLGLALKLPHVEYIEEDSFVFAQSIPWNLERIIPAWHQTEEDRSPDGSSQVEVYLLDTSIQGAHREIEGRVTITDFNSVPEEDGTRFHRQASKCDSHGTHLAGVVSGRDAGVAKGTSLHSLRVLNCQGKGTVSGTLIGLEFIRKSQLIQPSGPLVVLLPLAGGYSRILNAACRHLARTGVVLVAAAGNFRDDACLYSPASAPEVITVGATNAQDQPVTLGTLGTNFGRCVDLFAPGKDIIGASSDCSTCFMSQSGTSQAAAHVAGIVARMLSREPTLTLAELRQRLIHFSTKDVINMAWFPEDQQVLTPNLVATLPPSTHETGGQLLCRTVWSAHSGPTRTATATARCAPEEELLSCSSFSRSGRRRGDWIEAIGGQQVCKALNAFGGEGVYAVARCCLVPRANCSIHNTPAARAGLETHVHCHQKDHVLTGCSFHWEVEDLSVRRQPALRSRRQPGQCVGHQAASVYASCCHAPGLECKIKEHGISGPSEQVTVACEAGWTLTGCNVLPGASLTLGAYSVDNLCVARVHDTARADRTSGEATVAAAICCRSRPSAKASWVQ
T4 sequence (P59996 31-691 limits assumed): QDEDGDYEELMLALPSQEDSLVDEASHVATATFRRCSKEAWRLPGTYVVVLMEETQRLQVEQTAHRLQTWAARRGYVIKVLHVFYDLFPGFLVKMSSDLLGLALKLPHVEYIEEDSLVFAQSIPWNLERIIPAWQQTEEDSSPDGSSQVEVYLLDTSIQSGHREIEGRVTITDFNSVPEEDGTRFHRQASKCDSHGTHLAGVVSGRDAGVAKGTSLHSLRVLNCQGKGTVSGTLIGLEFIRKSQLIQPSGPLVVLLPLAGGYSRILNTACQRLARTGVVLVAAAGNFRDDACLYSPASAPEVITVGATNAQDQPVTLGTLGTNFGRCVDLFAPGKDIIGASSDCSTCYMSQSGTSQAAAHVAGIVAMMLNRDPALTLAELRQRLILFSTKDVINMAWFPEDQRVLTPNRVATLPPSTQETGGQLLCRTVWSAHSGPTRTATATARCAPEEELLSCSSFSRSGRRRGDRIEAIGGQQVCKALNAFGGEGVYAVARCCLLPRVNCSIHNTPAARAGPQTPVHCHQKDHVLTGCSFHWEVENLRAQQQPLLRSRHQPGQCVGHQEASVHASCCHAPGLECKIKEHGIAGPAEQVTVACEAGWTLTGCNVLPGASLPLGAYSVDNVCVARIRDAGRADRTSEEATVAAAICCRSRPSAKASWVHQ
T1 sequence (Q8NBP7 31-692 limits assumed): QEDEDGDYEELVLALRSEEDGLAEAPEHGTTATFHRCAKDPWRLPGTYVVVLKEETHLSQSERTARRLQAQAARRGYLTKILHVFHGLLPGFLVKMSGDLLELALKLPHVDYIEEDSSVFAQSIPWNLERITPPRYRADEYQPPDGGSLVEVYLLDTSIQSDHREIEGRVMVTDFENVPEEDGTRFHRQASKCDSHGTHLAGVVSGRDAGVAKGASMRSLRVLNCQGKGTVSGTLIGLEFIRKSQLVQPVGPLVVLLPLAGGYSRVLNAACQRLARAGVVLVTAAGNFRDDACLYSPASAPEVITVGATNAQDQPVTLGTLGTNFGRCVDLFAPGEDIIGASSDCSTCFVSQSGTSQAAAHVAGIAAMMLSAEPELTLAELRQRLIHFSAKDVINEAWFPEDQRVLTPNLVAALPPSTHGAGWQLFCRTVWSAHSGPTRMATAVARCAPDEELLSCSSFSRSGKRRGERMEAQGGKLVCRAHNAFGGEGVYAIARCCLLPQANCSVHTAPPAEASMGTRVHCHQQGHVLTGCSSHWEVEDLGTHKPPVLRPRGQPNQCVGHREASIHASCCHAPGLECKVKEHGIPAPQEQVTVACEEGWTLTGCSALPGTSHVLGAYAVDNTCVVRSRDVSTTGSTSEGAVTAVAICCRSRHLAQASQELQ
T2 sequence (P55899 24-297 limits assumed, form in doubt, chain 1 of 2): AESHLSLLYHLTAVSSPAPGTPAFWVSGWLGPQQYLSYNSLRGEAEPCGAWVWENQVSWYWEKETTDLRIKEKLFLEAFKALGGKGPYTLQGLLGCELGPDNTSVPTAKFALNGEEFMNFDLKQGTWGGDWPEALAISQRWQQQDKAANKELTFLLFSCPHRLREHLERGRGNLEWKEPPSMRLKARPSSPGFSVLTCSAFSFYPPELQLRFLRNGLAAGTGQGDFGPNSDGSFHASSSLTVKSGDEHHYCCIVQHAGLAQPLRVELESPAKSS
T2 sequence (P61769 21-119 limits assumed, form in doubt, chain 2 of 2): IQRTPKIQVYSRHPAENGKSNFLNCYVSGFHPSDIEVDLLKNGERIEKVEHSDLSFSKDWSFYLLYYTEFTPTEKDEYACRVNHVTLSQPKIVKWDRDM

Binder | IC50 (human PCSK9 [1]) | Kd (human PCSK9 [2]) | Kd (rhesus PCSK9 (rhesus) [3]) | Kd (rhesus PCSK9 (rhesus) [4]) | IgG IC50 (nM), inhibition of PCSK9 on LDL uptake (Exopolar assay) (rhesus PCSK9 (rhesus) [5]) | % bound (RUStability/RUBinding) (human FcRn) | Kd (human PCSK9 [6]) | binding result (mouse PCSK9) | binding result (rat PCSK9) | IgG IC50 (nM), inhibition of PCSK9 on LDL uptake (Exopolar assay) (human PCSK9 [7]) | Kd (human PCSK9 [8]) | IgG IC50 (nM), inhibition of PCSK9 on LDL uptake (Exopolar assay) (rhesus PCSK9)
AX9 IgG2 (antibody) heavy: EVQLLESGGGLVQPGGSLRLSCKASGYTFSSYWMHWVRQAPGKGLEWIGRIDPYNGGTKYNEKFKGKATISRDNSKNTLYLQMNSLRAEDTAVYYCARYGYYLGSYAMDYWGQGTLVTVSSASTKGPSVFPLAPCSRSTSESTAALGCLVKDYFPEPVTVSWNSGALTSGVHTFPAVLQSSGLYSLSSVVTVPSSNFGTQTYTCNVDHKPSNTKVDKTVERKCCVECPPCPAPPVAGPSVFLFPPKPKDTLMISRTPEVTCVVVDVSHEDPEVQFNWYVDGVEVHNAKTKPREEQFNSTFRVVSVLTVVHQDWLNGKEYKCKVSNKGLPAPIEKTISKTKGQPREPQVYTLPPSREEMTKNQVSLTCLVKGFYPSDIAVEWESNGQPENNYKTTPPMLDSDGSFFLYSKLTVDKSRWQQGNVFSCSVMHEALHNHYTQKSLSLSPGK light: DIQMTQSPSSLSASVGDRVTITCRASQDVSKYLAWYQQKPGKAPKLLIYAASSLQSGVPSRFSGSGSGTDFTLTISSLQPEDFATYYCQVYDSSPNAYVFGGGTKVEIKRTVAAPSVFIFPPSDEQLKSGTASVVCLLNNFYPREAKVQWKVDNALQSGNSQESVTEQDSKDSTYSLSSTLTLSKADYEKHKVYACEVTHQGLSSPVTKSFNRGEC | 4.1 nM | 20.6 nM | 8.82 nM | 8.82 nM | 28.6 nM | 1% | 20.6 nM | no binding | no binding | 25.5 nM |  | 
AX1 IgG2 (antibody, Made in HEK293 cells or in glycoengineered Pichia) heavy: EVQLLESGGGLVQPGGSLRLSCKASGFTFTSYYMHWVRQAPGKGLEWIGRINPDSGSTKYNEKFKGRATISRDNSKNTLYLQMNSLRAEDTAVYYCARGGRLSWDFDVWGQGTLVTVSSASTKGPSVFPLAPCSRSTSESTAALGCLVKDYFPEPVTVSWNSGALTSGVHTFPAVLQSSGLYSLSSVVTVPSSNFGTQTYTCNVDHKPSNTKVDKTVERKCCVECPPCPAPPVAGPSVFLFPPKPKDTLMISRTPEVTCVVVDVSHEDPEVQFNWYVDGVEVHNAKTKPREEQFNSTFRVVSVLTVVHQDWLNGKEYKCKVSNKGLPAPIEKTISKTKGQPREPQVYTLPPSREEMTKNQVSLTCLVKGFYPSDIAVEWESNGQPENNYKTTPPMLDSDGSFFLYSKLTVDKSRWQQGNVFSCSVMHEALHNHYTQKSLSLSPGK light: DIQMTQSPSSLSASVGDRVTITCRASQDISRYLAWYQQKPGKAPKLLIYAASSLQSGVPSRFSGSGSGTDFTLTISSLQPEDFATYYCAAYDYSLGGYVFGDGTKVEIKRTVAAPSVFIFPPSDEQLKSGTASVVCLLNNFYPREAKVQWKVDNALQSGNSQESVTEQDSKDSTYSLSSTLTLSKADYEKHKVYACEVTHQGLSSPVTKSFNRGEC | 1 nM | 5.75 nM | 8.61 nM | 4.2 nM | 11.2 nM | 5% | 5.75 nM | no binding | no binding | 7 nM | 5.75 nM | 
AX1DG IgG2 (antibody, V domains shown, IgG2; also called AXIDG) VH: EVQLLESGGGLVQPGGSLRLSCKASGFTFTSYYMHWVRQAPGKGLEWIGRINPDSGSTKYNEKFKGRATISRDNSKNTLYLQMNSLRAEDTAVYYCARGGRLSWDFDVWGQGTLVTVSS VL: DIQMTQSPSSLSASVGDRVTITCRASQDISRYLAWYQQKPGKAPKLLIYAASSLQSGVPSRFSGSGSGTDFTLTISSLQPEDFATYYCAAYDYSLGGYVFGGGTKVEIK |  | 4.61 nM | 8.1 nM | 3.6 nM |  |  | 4.61 nM | no binding | no binding | 7.4 nM | 4.61 nM | 
AX9 IgG1 (antibody, V domains shown) VH: EVQLLESGGGLVQPGGSLRLSCKASGYTFSSYWMHWVRQAPGKGLEWIGRIDPYNGGTKYNEKFKGKATISRDNSKNTLYLQMNSLRAEDTAVYYCARYGYYLGSYAMDYWGQGTLVTVSS VL: DIQMTQSPSSLSASVGDRVTITCRASQDVSKYLAWYQQKPGKAPKLLIYAASSLQSGVPSRFSGSGSGTDFTLTISSLQPEDFATYYCQVYDSSPNAYVFGGGTKVEIK |  |  |  |  |  |  |  |  |  | 10.7 nM |  | 30.3 nM
